Assay results reported in article PMC6086839, “Elongator mutation in mice induces neurodegeneration and ataxia-like behavior” (Nature Communications, 2018).

B1: yeast Elongator complex subunit 6 (yElp6) (natural protein, S. cerevisiae)
chain: MGSVQRQDLVLFSDQSVLPAHFFQDSNSHNLFFITHQSCTQPLWMINALVETHVLGSPSSLNESSSSMLPSSTRSHAVLASFIHEQNYFTNSLNKLKIPSNNYNVLDFLSDFIVNNIHNKPRDKILSDVLAKFSAAIQNNPTDTIVIIEQPELLLSLVSGLTCSELNNKFITPLLRQCKVLIIVSNSDIFNIDEYDASVHSSNLQNFYKSSFIKSMINLNLNPLKTGFAKDVTGSLHVCRGGAPIATSNTSLHVVENEYLYLNEKESTKLFYR
notes: Elp6, S. cerevisiae, Q04868; printed without limits (yElp456); source: purified Elp456 complex from yeast subunits

Experiments:
[1] = biological target: T1, yeast Elp4 residues 66-426 (yElp4_(66-426)) (S. cerevisiae, UniProt Q02884 66-426); assay: co-purification (NiNTA affinity, then SEC); subunits co-expressed in E. coli; truncated complexes purified as complexes and then used for Thermofluor; conditions: both partners purified
T1 construct: source: purified complex
T1 sequence (looked up): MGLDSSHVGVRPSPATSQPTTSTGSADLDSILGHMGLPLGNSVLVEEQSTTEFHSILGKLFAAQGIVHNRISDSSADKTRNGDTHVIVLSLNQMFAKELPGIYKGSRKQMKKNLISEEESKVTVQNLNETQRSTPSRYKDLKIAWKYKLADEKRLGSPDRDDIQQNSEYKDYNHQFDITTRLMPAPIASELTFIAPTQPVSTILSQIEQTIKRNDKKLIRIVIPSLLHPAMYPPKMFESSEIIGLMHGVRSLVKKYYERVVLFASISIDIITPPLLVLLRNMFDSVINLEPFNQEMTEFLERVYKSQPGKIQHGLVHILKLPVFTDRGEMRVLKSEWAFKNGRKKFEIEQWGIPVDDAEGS

[2] = biological target: B1; assay: as above; conditions: both partners purified

| binding result [1] | binding result [2] | Binder |
| --- | --- | --- |
| binds | binds | yeast Elp5 residues 1-270 (yElp5_(1-270)) (domain or fragment, S. cerevisiae, UniProt P38874 1-270, looked up, Elp5, yeast, residues 1-270; source: purified complex) MASSSHNPVILLKRILSLTESSPFILCLDSIAQTSYKLIQEFVHQSKSKGNEYPIVYISFETVNKPSYCTQFIDATQMDFVHLVKQIISYLPAATATQAKKHMVIIDSLNYISTEYITRFLSEIASPHCTMVATYHKDIKDENRTVIPDWNNNYPDKLTLLQFMATTIVDIDVVLTGTLDTEEVSELLNEFRIPRGLNNDIFQLRLVNKRKSGRSLEYDFIVNSNTHEYELLSTTKQEEESSSNGLETPEMLQGLTTFNLGTSNKQKLAK |
| binds | – | B1 |
